Test results: the supplement of paper PMC9170038

Tests used:
MS2 coat protein [1] = assay: apparent KD of MS2 coat protein, switch OFF state (with FMN for OFF switches, without FMN for ON switches); designed switch direction (-1 OFF switch, 1 ON switch): 1; higher = weaker reporter binding; details: FMN input: 0 or 200 uM; Eterna round: R93 (includes R88 designs)
In short: (§1)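 Values are apparent KD, taken as the median for each design of fits to normalised binding curves from individual clusters. The designed RNA switches were transcribed on-chip from Illumina sequencing clusters and exposed to SNAP-549-labelled MS2 coat protein at twofold increasing amounts from 0.7 or 1.5 nM to 3 µM. Titration used 100 mM Tris-HCl pH 7.5, 80 mM KCl and 4 mM MgCl2, without or with constant ligand.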

MS2 coat protein [2] = assay: apparent KD of MS2 coat protein, switch ON state; designed switch direction (-1 OFF switch, 1 ON switch): 1; higher = weaker reporter binding; details: FMN input: 0 or 200 uM; Eterna round: R93 (includes R88 designs)
In short: as §1

Row | Sequence | apparent KD of MS2 coat protein (MS2 coat protein [1]) [nM] | apparent KD of MS2 coat protein (MS2 coat protein [2]) [nM]
1 | AAGAAACAUGAGGAUCACCCAUGUAAGAUAUACACAGGAUAUGCGAAAAGAAACAAAGAAGCAGAAGGGUGGAAAA [75%, Ex sub1, 10] | 33.4 | 14.9
2 | AAAAAACAUGAGGAUCACCCAUGUAAAAAAAACACAGGAUAUCCCUUUUUUAAAAAAAAAGGAGAAGGGUGAAAAA [Nob's Hobby 7 - Jieux - Same State 1] | 31.5 | 31.1
3 | AUAAAACAUGAGGAUCACCCAUGUAAAAAUAUGGGAGGAUAUGCGAAAUAAAAUAAAUAAGCAGAAGGCCUAAAAA [SS! MT 19] | 174 | 11.9
4 | AAAACACAUGAGGAUCACCCAUGUAAAAACAUGGGAGGAUAUGCAUGAAAAACAUGCUAUGCAGAAGGCUCAUGUG [SS1 - 2] | 99.1 | 29
5 | CGAAAGGAGAGAGAGGAUAUCCAAAGGAAAACAUGAGGAUCACCCAUGUAGAAGGUAGGAGAUUGGGAGAAGGCUCAAGAGAGGC [salish99-ss2-150] | 46.7 | 18.5
6 | AUAUGAGCUAUGGAGGAUAUCCAUAACAAGACAUGAGGAUCACCCAUGUAAGAAAGAAAAGAAUGGGAGAAGGCCAUAGCUCAAU [SS 2 M46] | 63.7 | 37.9
7 | CUAGUUGCAUACUAGGAUAUACACUGGGUGACAUGAGGAUCACCCAUGUAAAAGCACAUUCGGUAGUAGAAGGAGUGUGCAGGUC [Ceedesbi] | 68.8 | 92.6
8 | AACAAUCUAUCUGAGGAUAUCAUGAAAAAGACAUGAGGAUCACCCAUGUACCAGGAAACUGGUUAUGAGAAGGCAGAUAGAUUGA [SS2: 1116] | 14.4 | 9.32
9 | AAACUGGAGGACAAGGAUAUGUGCUCUACGACAUGAGGAUCACCCAUGUGAGACGUAGUAGUGAAACAGAAGGUGUCCUAUUGUU [Qulece] | 27.4 | 11.6
10 | UUUAAUUAUACGAAGGAUAUCGGUAAUUAGACAUGAGGAUCACCCAUGUUAUAAGGUUCCAUAUUCGAGAAGGUCGCGGGUGAAC [JR_SS002_Sub509] | 18.2 | 16.1
11 | AAGAAACAUGAGGAUCACCCAUGUGAGAAUAACACAGGAUAUGCAAAAGAAAGAAAGAAAGCAGAAGGGUGAAGAA [Mat - Same State 1 - Tesla mod - 53] | 59.1 | 23.3
12 | UACACGCGGGCGCAGGAUAUGUCGCUGGUGACAUGAGGAUCACCCAUGUAUACCAUUGCGGUUGAGCAGAAGGGUGAGAAGCGUG [Raanlaza] | 56.3 | 20.4
13 | AACAUACAUGAGGAUCACCCAUGUUAGGUGGGACUAGGAUAUCAAUCGAAAGUGUUAUAAUGAGAAGGAGUAUAAA [JR_SS001_Sub015] | 209 | 127
14 | AGGAGACAUGAGGAUCACCCAUGUGAGAAGAGGCGAGGAUAUCGAAAGAAAGAAGAGAAACGAGAAGGCGCGAGUA [salish99-SS1-018] | 40.8 | 24.9
15 | AGGAGACAUGAGGAUCACCCAUGUGAGAAGAGGCGAGGAUAUCGAAAGAAAGAAGAGAAACGAGAAGGCGCGAGUC [salish99-SS1-030] | 37 | 25.6
16 | AAAAAACAUGAGGAUCACCCAUGUAAAAAAAACACAGGAUAUCCCUUUUUUAAAUGGGAAGGAGAAGGGUGAAAAA [Nob's Hobby 11 - Jieux - Same State 1] | 36.2 | 43.1
17 | AAUAUAUUAAGUGAGGAUAUCGAGGAAAAAACAUGAGGAUCACCCAUGUGGGAAACAUGGUAGGGUGAGAAGGUACUUAAUAUAU [Samwise Clockwise 23 - Jieux - Same State 2] | 220 | 218
18 | GAAAAACAUGAGGAUCACCCAUGUAGAAAUAUGGGAGGAUAUACAAAGACGAAAGUCAAAGUAGAAGGCCUCAAAG [JL S1 M-MoE mod 2 In the Red] | 78.2 | 84.9
19 | GAAAAACAUGAGGAUCACCCAUGUAGAAAUAUGGGAGGAUAUACAAAGUCGAAAGUCAAAGUAGAAGGCCUAAAAG [Garnet 26] | 170 | 40.7
20 | AAUAUACAUGAGGAUCACCCAUGUUUUAAUAGCUGAGGAUAUACGGGUGAAAAUAGCAUAGUAGAAGGCGGGUGUA [SameState1 Malc#9] | 80 | 92.2
21 | AAAAAAAAAAGGCAGGAUAUUCAAAAAAAAACAUGAGGAUCACCCAUGUAAAAAAAAAAAAAAUGGAAGAAGGGCCAAAAAAAAAA [Fiskers Same State 2 D1] | 28 | 18.8
22 | AGGAGACAUGAGGAUCACCCAUGUGCGAGGUGAAGAGGAUAUAGAAGAAGAAGAAAGAAACUAGAAGGCUUAAAAA [JR_SameState1_Sub1] | 125 | 122
